B1: dBBDu183H L100dT / dBBDu072L (antibody, name in Kabat numbering, V domains shown)
VH: QVQLVESGGGLVQPGRSLRLSCAASGFTFSNAWMHWVRQAPGKGLEWVAQIKDKGNAYAAYYAPSVKGRFTISRDDSKNSIYLQMNSLKTEDTAVYYCHYVHYASASTVTPAFGVDAWGQGTTVTVSS
VL: DIVMTQSPLSLPVTPGEPASISCQASQELVHMNRNTYLHWYQQKPGQAPRLLIYKVSNRFPGVPDRFSGSGSGTDFTLKISRVEAEDVGVYYCAQGTSVPFTFGQGTKLEIK
B2: dBBDu183H A102D / dBBDu072L (antibody, name in Kabat numbering, V domains shown)
VH: B1 VH with T110L, A117D
VL: B1 VL
B3: dBBDu183H A102T / dBBDu072L (antibody, name in Kabat numbering, V domains shown)
VH: B1 VH with T110L, A117T
VL: B1 VL
B4: dBBDu183H A100H / dBBDu072L (antibody, name in Kabat numbering, V domains shown)
VH: B1 VH with A106H, T110L
VL: B1 VL
B5: dBBDu183H H93E / dBBDu072L (antibody, name in Kabat numbering, V domains shown)
VH: B1 VH with H99E, T110L
VL: B1 VL
B6: dBBDu183H T100bE / dBBDu072L (antibody, name in Kabat numbering, V domains shown)
VH: B1 VH with T108E, T110L
VL: B1 VL
B7: dBBDu183H G100hE / dBBDu072L (antibody, name in Kabat numbering, V domains shown)
VH: B1 VH with T110L, G114E
VL: B1 VL
B8: dBBDu183H A98D / dBBDu072L (antibody, name in Kabat numbering, V domains shown)
VH: B1 VH with A104D, T110L
VL: B1 VL
B9: dBBDu183H L100dH / dBBDu072L (antibody, name in Kabat numbering, V domains shown)
VH: B1 VH with T110H
VL: B1 VL
B10: dBBDu183H H96D / dBBDu072L (antibody, name in Kabat numbering, V domains shown)
VH: B1 VH with H102D, T110L
VL: B1 VL
B11: dBBDu183H A102H / dBBDu072L (antibody, name in Kabat numbering, V domains shown)
VH: B1 VH with T110L, A117H
VL: B1 VL
B12: dBBDu183H V100iE / dBBDu072L (antibody, name in Kabat numbering, V domains shown)
VH: B1 VH with T110L, V115E
VL: B1 VL
B13: dBBDu183H V100cD / dBBDu072L (antibody, name in Kabat numbering, V domains shown)
VH: B1 VH with V109D, T110L
VL: B1 VL
B14: dBBDu183H F100gD / dBBDu072L (antibody, name in Kabat numbering, V domains shown)
VH: B1 VH with T110L, F113D
VL: B1 VL
B15: dBBDu183H G100hD / dBBDu072L (antibody, name in Kabat numbering, V domains shown)
VH: B1 VH with T110L, G114D
VL: B1 VL
B16: dBBDu183H V95H / dBBDu072L (antibody, name in Kabat numbering, V domains shown)
VH: B1 VH with V101H, T110L
VL: B1 VL
B17: dBBDu183H D101H / dBBDu072L (antibody, name in Kabat numbering, V domains shown)
VH: B1 VH with T110L, D116H
VL: B1 VL
B18: dBBDu183H S99D / dBBDu072L (antibody, name in Kabat numbering, V domains shown)
VH: B1 VH with S105D, T110L
VL: B1 VL
B19: dBBDu183H H93D / dBBDu072L (antibody, name in Kabat numbering, V domains shown)
VH: B1 VH with H99D, T110L
VL: B1 VL
B20: dBBDu183H Y94H / dBBDu072L (antibody, name in Kabat numbering, V domains shown)
VH: B1 VH with Y100H, T110L
VL: B1 VL
B21: dBBDu183H A100D / dBBDu072L (antibody, name in Kabat numbering, V domains shown)
VH: B1 VH with A106D, T110L
VL: B1 VL
B22: dBBDu183H Y97E / dBBDu072L (antibody, name in Kabat numbering, V domains shown)
VH: B1 VH with Y103E, T110L
VL: B1 VL
B23: dBBDu183H G100hT / dBBDu072L (antibody, name in Kabat numbering, V domains shown)
VH: B1 VH with T110L, G114T
VL: B1 VL
B24: dBBDu183H V100iH / dBBDu072L (antibody, name in Kabat numbering, V domains shown)
VH: B1 VH with T110L, V115H
VL: B1 VL
B25: dBBDu183H G100hH / dBBDu072L (antibody, name in Kabat numbering, V domains shown)
VH: B1 VH with T110L, G114H
VL: B1 VL
B26: dBBDu183H S100aE / dBBDu072L (antibody, name in Kabat numbering, V domains shown)
VH: B1 VH with S107E, T110L
VL: B1 VL
B27: dBBDu183H V95E / dBBDu072L (antibody, name in Kabat numbering, V domains shown)
VH: B1 VH with V101E, T110L
VL: B1 VL
B28: dBBDu183H T100bD / dBBDu072L (antibody, name in Kabat numbering, V domains shown)
VH: B1 VH with T108D, T110L
VL: B1 VL
B29: dBBDu183H T100bH / dBBDu072L (antibody, name in Kabat numbering, V domains shown)
VH: B1 VH with T108H, T110L
VL: B1 VL
B30: dBBDu183H S99E / dBBDu072L (antibody, name in Kabat numbering, V domains shown)
VH: B1 VH with S105E, T110L
VL: B1 VL
B31: dBBDu183H Y94E / dBBDu072L (antibody, name in Kabat numbering, V domains shown)
VH: B1 VH with Y100E, T110L
VL: B1 VL
B32: dBBDu183H S100aH / dBBDu072L (antibody, name in Kabat numbering, V domains shown)
VH: B1 VH with S107H, T110L
VL: B1 VL
B33: dBBDu183H Y97H / dBBDu072L (antibody, name in Kabat numbering, V domains shown)
VH: B1 VH with Y103H, T110L
VL: B1 VL
B34: dBBDu183H S100aD / dBBDu072L (antibody, name in Kabat numbering, V domains shown)
VH: B1 VH with S107D, T110L
VL: B1 VL
B35: dBBDu183H A98H / dBBDu072L (antibody, name in Kabat numbering, V domains shown)
VH: B1 VH with A104H, T110L
VL: B1 VL
B36: dBBDu183H V100iD / dBBDu072L (antibody, name in Kabat numbering, V domains shown)
VH: B1 VH with T110L, V115D
VL: B1 VL
B37: dBBDu183H A102E / dBBDu072L (antibody, name in Kabat numbering, V domains shown)
VH: B1 VH with T110L, A117E
VL: B1 VL
B38: dBBDu183H H96E / dBBDu072L (antibody, name in Kabat numbering, V domains shown)
VH: B1 VH with H102E, T110L
VL: B1 VL
B39: dBBDu183H A100fE / dBBDu072L (antibody, name in Kabat numbering, V domains shown)
VH: B1 VH with T110L, A112E
VL: B1 VL
B40: dBBDu183H V95D / dBBDu072L (antibody, name in Kabat numbering, V domains shown)
VH: B1 VH with V101D, T110L
VL: B1 VL
B41: dBBDu183H Y97D / dBBDu072L (antibody, name in Kabat numbering, V domains shown)
VH: B1 VH with Y103D, T110L
VL: B1 VL
B42: dBBDu183H A100fD / dBBDu072L (antibody, name in Kabat numbering, V domains shown)
VH: B1 VH with T110L, A112D
VL: B1 VL
B43: dBBDu183H L100dD / dBBDu072L (antibody, name in Kabat numbering, V domains shown)
VH: B1 VH with T110D
VL: B1 VL
B44: dBBDu183H A100fT / dBBDu072L (antibody, name in Kabat numbering, V domains shown)
VH: B1 VH with T110L, A112T
VL: B1 VL

Positions count from the first letter of the chain named. Names and notes keep the numbering of the source.

Sequence of Human CD137 ECD (human) (chain, as listed by the source limits assumed): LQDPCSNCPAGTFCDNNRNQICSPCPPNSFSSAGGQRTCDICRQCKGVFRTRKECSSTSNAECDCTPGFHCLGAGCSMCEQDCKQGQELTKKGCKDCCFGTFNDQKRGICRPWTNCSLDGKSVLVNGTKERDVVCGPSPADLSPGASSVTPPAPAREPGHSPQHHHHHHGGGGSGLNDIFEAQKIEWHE

This assay addresses Human CD137 ECD (human). Description: SPR, vs parent H183/L072. (In general: SPR reads the build-up and loss of mass on a sensor chip optically.)
For the molecule B1, the fold change of affinity was 0 fold.
For B2, the fold change of affinity is 0 fold.
On to B3, for which the fold change of affinity stood at 0 fold.
On to B4, for which the fold change of affinity amounted to 0 fold.
As to B5, the fold change of affinity was determined as 0 fold.
With B6, the fold change of affinity turned out to be 0 fold.
For B7, the fold change of affinity was determined as 0 fold.
Take B8: the fold change of affinity is 0 fold.
As for B9, the fold change of affinity was 0 fold.
On to B10, for which the fold change of affinity stood at 0 fold.
Consider B11, for which the fold change of affinity is 0 fold.
For the molecule B12, the fold change of affinity is 0 fold.
With B13, the fold change of affinity worked out at 0 fold.
In the case of B14, the fold change of affinity was 0 fold.
The same measure for B15: 0 fold.
Take B16: the fold change of affinity was determined as 0 fold.
Take B17: the fold change of affinity was found to be 0 fold.
On to B18, for which the fold change of affinity worked out at 0 fold.
Regarding B19, the fold change of affinity was found to be 0 fold.
Consider B20, for which the fold change of affinity amounted to 0 fold.
The value for B21 was 0 fold; that for B22 was 0 fold.
B23: the fold change of affinity turned out to be 0 fold.
B24: the fold change of affinity amounted to 0 fold.
With B25, the fold change of affinity came out at 0 fold.
Regarding B26, the fold change of affinity is 0 fold.
As to B27, the fold change of affinity is 0 fold.
B28: the fold change of affinity amounted to 0 fold.
Regarding B29, the fold change of affinity came to 0 fold.
Consider B30, for which the fold change of affinity was found to be 0 fold.
Take B31: the fold change of affinity turned out to be 0 fold.
As to B32, the fold change of affinity turned out to be 0 fold.
In the case of B33, the fold change of affinity is 0 fold.
With B34, the fold change of affinity was determined as 0 fold.
In the case of B35, the fold change of affinity was 0 fold.
Regarding B36, the fold change of affinity stood at 0 fold.
The same measure for B37: 0 fold; for B38: 0 fold.
B39: the fold change of affinity stood at 0 fold.
As for B40, the fold change of affinity came to 0 fold.
As for B41, the fold change of affinity came out at 0 fold.
The same measure for B42: 0 fold; for B43: 0 fold.
Consider B44, for which the fold change of affinity came out at 0 fold.

Source of the values: patent US20210388087A1.
